Data published in IntAct's records for PubMed 25117710.

B1: Protein C-ets-1 (Homo sapiens), P14921-1 (parent)
chain: MKAAVDLKPTLTIIKTEKVDLELFPSPDMECADVPLLTPSSKEMMSQALKATFSGFTKEQQRLGIPKDPRQWTETHVRDWVMWAVNEFSLKGVDFQKFCMNGAALCALGKDCFLELAPDFVGDILWEHLEILQKEDVKPYQVNGVNPAYPESRYTSDYFISYGIEHAQCVPPSEFSEPSFITESYQTLHPISSEELLSLKYENDYPSVILRDPLQTDTLQNDYFAIKQEVVTPDNMCMGRTSRGKLGGQDSFESIESYDSCDRLTQSWSSQSSFNSLQRVPSYDSFDSEDYPAALPNHKPKGTFKDYVRDRADLNKDKPVIPAAALAGYTGSGPIQLWQFLLELLTDKSCQSFISWTGDGWEFKLSDPDEVARRWGKRKNKPKMNYEKLSRGLRYYYDKNIIHKTAGKRYVYRFVCDLQSLLGYTPEELHAMLDVKPDADE
B2: Protein C-ets-2 (Homo sapiens), P15036 (parent)
chain: MNDFGIKNMDQVAPVANSYRGTLKRQPAFDTFDGSLFAVFPSLNEEQTLQEVPTGLDSISHDSANCELPLLTPCSKAVMSQALKATFSGFKKEQRRLGIPKNPWLWSEQQVCQWLLWATNEFSLVNVNLQRFGMNGQMLCNLGKERFLELAPDFVGDILWEHLEQMIKENQEKTEDQYEENSHLTSVPHWINSNTLGFGTEQAPYGMQTQNYPKGGLLDSMCPASTPSVLSSEQEFQMFPKSRLSSVSVTYCSVSQDFPGSNLNLLTNNSGTPKDHDSPENGADSFESSDSLLQSWNSQSSLLDVQRVPSFESFEDDCSQSLCLNKPTMSFKDYIQERSDPVEQGKPVIPAAVLAGFTGSGPIQLWQFLLELLSDKSCQSFISWTGDGWEFKLADPDEVARRWGKRKNKPKMNYEKLSRGLRYYYDKNIIHKTSGKRYVYRFVCDLQNLLGFTPEELHAILGVQPDTED

Variants of: B1
Settings: with cop1_human COP1, Q8NHY2
Target sequence in this assay (Q8NHY2 whole entry): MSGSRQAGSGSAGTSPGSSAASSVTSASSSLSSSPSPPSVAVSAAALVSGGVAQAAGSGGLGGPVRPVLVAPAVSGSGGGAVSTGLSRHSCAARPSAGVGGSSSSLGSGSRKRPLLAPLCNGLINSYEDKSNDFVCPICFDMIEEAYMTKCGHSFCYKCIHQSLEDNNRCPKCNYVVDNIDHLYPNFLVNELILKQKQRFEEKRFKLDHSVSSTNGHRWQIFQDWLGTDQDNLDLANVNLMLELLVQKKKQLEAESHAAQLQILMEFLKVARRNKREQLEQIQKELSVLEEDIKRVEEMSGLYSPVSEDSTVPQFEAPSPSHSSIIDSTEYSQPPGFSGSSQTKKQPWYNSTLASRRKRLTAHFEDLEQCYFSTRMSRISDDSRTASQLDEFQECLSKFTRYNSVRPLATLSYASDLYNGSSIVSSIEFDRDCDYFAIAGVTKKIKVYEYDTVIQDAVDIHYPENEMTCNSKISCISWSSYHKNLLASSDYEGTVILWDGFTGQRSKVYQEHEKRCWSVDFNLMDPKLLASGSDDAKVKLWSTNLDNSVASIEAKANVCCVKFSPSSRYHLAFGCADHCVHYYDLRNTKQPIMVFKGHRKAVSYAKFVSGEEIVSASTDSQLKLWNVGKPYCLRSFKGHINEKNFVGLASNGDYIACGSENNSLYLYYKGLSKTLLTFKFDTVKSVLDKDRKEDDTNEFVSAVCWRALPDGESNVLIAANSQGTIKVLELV

Variant | effect of a mutation on the interaction
MKAAVDLKPTLTIIKTEKVDLELFPSPDMECADVPLLTPSSKEMMSQALKATFSGFTKEQQRLGIPKDPRQWTETHVRDWVMWAVNEFSLKGVDFQKFCMNGAALCALGKDCFLELAPDFVGDILWEHLEILQKEDVKPYQVNGVNPAYPESRYTSDYFISYGIEHAQCVPPSEFSEPSFITESYQTLHPISSEELLSLKYENDYPSVILRDPLQTDTLQNDYFAIKQEVVTPDNMCMGRTSRGKLGGQDSFESIESYDSCDRLTQSWSSQSSFNDLQRVPDFDSFDSEDYPAALPNHKPKGTFKDYVRDRADLNKDKPVIPAAALAGYTGSGPIQLWQFLLELLTDKSCQSFISWTGDGWEFKLSDPDEVARRWGKRKNKPKMNYEKLSRGLRYYYDKNIIHKTAGKRYVYRFVCDLQSLLGYTPEELHAMLDVKPDADE [S276D;S282D;Y283F] | increasing interaction strength
MKAAVDLKPTLTIIKTEKVDLELFPSPDMECADVPLLTPSSKEMMSQALKATFSGFTKEQQRLGIPKDPRQWTETHVRDWVMWAVNEFSLKGVDFQKFCMNGAALCALGKDCFLELAPDFVGDILWEHLEILQKEDVKPYQVNGVNPAYPESRYTSDYFISYGIEHAQCVPPSEFSEPSFITESYQTLHPISSEELLSLKYENDYPSVILRDPLQTDTLQNDYFAIKQEVVTPDNMCMGRTSRGKLGGQDSFESIESYDSCDRLTQSWSSQSSFNDLQRVPSFDSFDSEDYPAALPNHKPKGTFKDYVRDRADLNKDKPVIPAAALAGYTGSGPIQLWQFLLELLTDKSCQSFISWTGDGWEFKLSDPDEVARRWGKRKNKPKMNYEKLSRGLRYYYDKNIIHKTAGKRYVYRFVCDLQSLLGYTPEELHAMLDVKPDADE [S276D;Y283F] | increasing interaction strength
MKAAVDLKPTLTIIKTEKVDLELFPSPDMECADVPLLTPSSKEMMSQALKATFSGFTKEQQRLGIPKDPRQWTETHVRDWVMWAVNEFSLKGVDFQKFCMNGAALCALGKDCFLELAPDFVGDILWEHLEILQKEDVKPYQVNGVNPAYPESRYTSDYFISYGIEHAQCVPPSEFSEPSFITESYQTLHPISSEELLSLKYENDYPSVILRDPLQTDTLQNDYFAIKQEVVTPDNMCMGRTSRGKLGGQDSFESIESYDSCDRLTQSWSSQSSFNALQRVPDFDSFDSEDYPAALPNHKPKGTFKDYVRDRADLNKDKPVIPAAALAGYTGSGPIQLWQFLLELLTDKSCQSFISWTGDGWEFKLSDPDEVARRWGKRKNKPKMNYEKLSRGLRYYYDKNIIHKTAGKRYVYRFVCDLQSLLGYTPEELHAMLDVKPDADE [S276A;S282D;Y283F] | increasing interaction strength

Variants of: B1
Settings: with cop1_human COP1, Q8NHY2
Remark: another data set of the same source
Target sequence in this assay (Q8NHY2 whole entry): as the sequence (Q8NHY2 whole entry) above

Variant | effect of a mutation on the interaction
MKAAVDLKPTLTIIKTEKVDLELFPSPDMECADVPLLTPSSKEMMSQALKATFSGFTKEQQRLGIPKDPRQWTETHVRDWVMWAVNEFSLKGVDFQKFCMNGAALCALGKDCFLELAPDFVGDILWEHLEILQKEDVKPYQVNGVNPAYPESRYTSDYFISYGIEHAQCVPPSEFSEPSFITESYQTLHPISSEELLSLKYENDYPSVILRDPLQTDTLQNDYFAIKQEVVTPDNMCMGRTSRGKLGGQDSFESIESYDSCDRLTQSWSSQSSFNSLQRAASYDSFDSEDYPAALPNHKPKGTFKDYVRDRADLNKDKPVIPAAALAGYTGSGPIQLWQFLLELLTDKSCQSFISWTGDGWEFKLSDPDEVARRWGKRKNKPKMNYEKLSRGLRYYYDKNIIHKTAGKRYVYRFVCDLQSLLGYTPEELHAMLDVKPDADE [V280A;P281A] | disrupting interaction strength

Variants of: B2
Settings: with cop1_human COP1, Q8NHY2
Target sequence in this assay (Q8NHY2 whole entry): as the sequence (Q8NHY2 whole entry) above

Variant | effect of a mutation on the interaction
MNDFGIKNMDQVAPVANSYRGTLKRQPAFDTFDGSLFAVFPSLNEEQTLQEVPTGLDSISHDSANCELPLLTPCSKAVMSQALKATFSGFKKEQRRLGIPKNPWLWSEQQVCQWLLWATNEFSLVNVNLQRFGMNGQMLCNLGKERFLELAPDFVGDILWEHLEQMIKENQEKTEDQYEENSHLTSVPHWINSNTLGFGTEQAPYGMQTQNYPKGGLLDSMCPASTPSVLSSEQEFQMFPKSRLSSVSVTYCSVSQDFPGSNLNLLTNNSGTPKDHDSPENGADSFESSDSLLQSWNSQSSLLDVQRAASFESFEDDCSQSLCLNKPTMSFKDYIQERSDPVEQGKPVIPAAVLAGFTGSGPIQLWQFLLELLSDKSCQSFISWTGDGWEFKLADPDEVARRWGKRKNKPKMNYEKLSRGLRYYYDKNIIHKTSGKRYVYRFVCDLQNLLGFTPEELHAILGVQPDTED [V308A;P309A] | decreasing interaction strength
MNDFGIKNMDQVAPVANSYRGTLKRQPAFDTFDGSLFAVFPSLNEEQTLQEAATGLDSISHDSANCELPLLTPCSKAVMSQALKATFSGFKKEQRRLGIPKNPWLWSEQQVCQWLLWATNEFSLVNVNLQRFGMNGQMLCNLGKERFLELAPDFVGDILWEHLEQMIKENQEKTEDQYEENSHLTSVPHWINSNTLGFGTEQAPYGMQTQNYPKGGLLDSMCPASTPSVLSSEQEFQMFPKSRLSSVSVTYCSVSQDFPGSNLNLLTNNSGTPKDHDSPENGADSFESSDSLLQSWNSQSSLLDVQRVPSFESFEDDCSQSLCLNKPTMSFKDYIQERSDPVEQGKPVIPAAVLAGFTGSGPIQLWQFLLELLSDKSCQSFISWTGDGWEFKLADPDEVARRWGKRKNKPKMNYEKLSRGLRYYYDKNIIHKTSGKRYVYRFVCDLQNLLGFTPEELHAILGVQPDTED [V52A;P53A] | decreasing interaction strength
MNDFGIKNMDQVAPVANSYRGTLKRQPAFDTFDGSLFAVFPSLNEEQTLQEAATGLDSISHDSANCELPLLTPCSKAVMSQALKATFSGFKKEQRRLGIPKNPWLWSEQQVCQWLLWATNEFSLVNVNLQRFGMNGQMLCNLGKERFLELAPDFVGDILWEHLEQMIKENQEKTEDQYEENSHLTSVPHWINSNTLGFGTEQAPYGMQTQNYPKGGLLDSMCPASTPSVLSSEQEFQMFPKSRLSSVSVTYCSVSQDFPGSNLNLLTNNSGTPKDHDSPENGADSFESSDSLLQSWNSQSSLLDVQRAASFESFEDDCSQSLCLNKPTMSFKDYIQERSDPVEQGKPVIPAAVLAGFTGSGPIQLWQFLLELLSDKSCQSFISWTGDGWEFKLADPDEVARRWGKRKNKPKMNYEKLSRGLRYYYDKNIIHKTSGKRYVYRFVCDLQNLLGFTPEELHAILGVQPDTED [V52A;P53A;V308A;P309A] | disrupting interaction strength
